Biological target: autoantibodies to BRAF purified from the sera of RA patients

B1: BRAF (protein)
chain: LQKSPGPQRERKSSSSSEDRNRMKTLGRRDSSDDWEIPDGQITVGQRIGSGSFGTVYKGKWHGDVAVKMLNVTAPTPQQLQAFKNEVGVLRKTRHVNILLFMGYSTKPQLAIVTQWCEGSSLYHHLHIIETKFEMIKLIDIARQTAQGMDYLHAKSIIHRDLKSNNIFLHEDLTVKIGDFGLATVKSRWSGSHQFEQLSGSILWMAPEVIRMQDKNPYSFQSDVYAFGIVLYELMTGQLPYSNINNRDQIIFMVGRGYLSPDLSKVRSNCPKAMKRLMAECLKKKRDERPLFPQILASIELLARSLPKIHRSASEPSLNRAGFQTEDFSLYACASPKTPIQAGGYGAFPVH
  phosphorylation of MEK1 by BRAF: 80% of anti-BRAF autoantibodies activate phosphorylation of MEK1 by BRAF in vitro
